According to patent US20020164738:

Biological target: T1, MAGE-3 protein purified from E. coli (pNB202, pRSET-A, N-terminal His tag)
T1 chain: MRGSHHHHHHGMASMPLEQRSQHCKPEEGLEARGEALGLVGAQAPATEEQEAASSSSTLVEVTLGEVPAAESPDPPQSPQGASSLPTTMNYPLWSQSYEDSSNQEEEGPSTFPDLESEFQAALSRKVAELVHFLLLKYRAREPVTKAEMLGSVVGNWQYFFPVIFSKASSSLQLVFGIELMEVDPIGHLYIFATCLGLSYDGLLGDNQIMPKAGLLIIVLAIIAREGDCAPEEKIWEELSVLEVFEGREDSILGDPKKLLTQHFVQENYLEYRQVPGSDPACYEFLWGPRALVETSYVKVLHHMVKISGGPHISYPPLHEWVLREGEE

B1: pro-caspase-12 (48 kDa) synthesized in vitro, radioactively labeled (protein)
chain: MAARRTHERDPIYKIKGLAKDMLDGVFDDLVEKNVLNGDELLKIGESASFILNKAENLVENFLEKTDMAGKIFAGHIANSQEQLSLQFSNDEDDGPQKICTPSSPSESKRKVEDDEMEVNAGLAHESHLMLTAPHGLQSSEVQDTLKLCPRDQFCKIKTERAKEIYPVMEKEGRTRLALIICNKKFDYLFDRDNADTDILNMQELLENLGYSVVLKENLTAQEMETELMQFAGRPEHQSSDSTFLVFMSHGILEGICGVKHRNKKPDVLHDDTIFKIFNNSNCRSLRNKPKILIMQACRGRYNGTIWVSTNKGIATADTDEERVLSCKWNNSITKAHVETDFIAFKSSTPHNISWKVGKTGSLFISKLIDCFKKYCWCYHLEEIFRKVQHSFEVPGELTQMPTIERVSMTRYFYLFPGN
  cleavage of radioactively labeled pro-caspase-12 by mature caspase-12 (SDS-PAGE, autoradiography): Addition of 12 µg of MAGE-3 inhibited the cleavage reaction by caspase-12 almost completely
